Laboratory results: patent US20230330249A1, “ANTIBODY-CONJUGATED CHEMICAL INDUCERS OF DEGRADATION OF BRM AND METHODS THEREOF” (Genentech, Inc., priority 2020, published 2023)
Numbering of substitutions follows the chain as printed. Numbers in names are those of the source.

Key:
Lysosomal release assay = format: in vitro ADME, human; conditions: pH 5.5, 24 h; for Release in lysosomal extract: 10 μM linker-drug, human liver lysosomes 0.17 mg/mL, cysteine 5 mM, 37° C.
Source text: Lysosomal release assays were run to measure the release of the degrader from the L1 moeity in an environment that mimics intracellular milieu. For the degrader to be active at binding BRM and ferrying it to the ubiquitin ligase, the L1 must first be released.
The assay was run using an L1 bound to the BRM-binding compound, named “L1-BRM1-#” that corresponds to the respective CIDE. The test determine whether cleavage of the covalent attachment of the L1 to the BRM portion occurred. Linker-drugs ([…]) were incubated with human liver lysosomes (0.17 mg/mL) and cysteine (5 mM) in 100 mM citric acid buffer pH 5.5 for 24 h. The samples were analyzed by Q Exactive Orbitrap mass specrometers using LC mobile phase containing (A) 0.1% formic acid in water and (B) 0.1% formic acid in acetonitrile in a gradient.

BRM [1] = target: T1, BRM (Homo sapiens, UniProt P51531); experiment: Cell assay to determine DC50 and Dmax (nuclear BRM immunofluorescence), NCI-H1944 cells; format: cell-based; conditions: 24 h drug treatment, nuclear BRM signal
T1 construct: endogenous in cells; host or cells: HCC515
Experimental: (§1) Cell based assays were run in […] cell lines to determine the DC50 and Dmax of Ab-L1-CIDE. BJAB, HCC515 and H1944 cells were plated in 384 well plates at 5000, 4000 and 2500 cells/well, respectively. The next day Ab-CIDEs were added. Following 24 h of drug treatment the cells were fixed with 4% formaldehyde for 15 minutes. The plates were washed three time with PBS. The cells were incubated with IF blocking solution (10% FCS, 1% BSA, […] in PBS). After 1.5 h a 2× solution of primary antibody diluted in IF blocking buffer: BRM (Cell signaling Cat #11966, 1:2000) was added. The plates were incubated over night at 4° C. The following morning cells were washed three time with PBS. Cells were then incubated with secondary antibodies (rabbit-Alexa 488 A21206 (1:2000)) for 1 h at room temperature in the dark. Hoechst H3570 at 1:5000 was added to the wells and the plates were incubated for an additional 30 minutes. Plates were wash 3×PBS and image on Opera Phenix™ High Content Screening System. Using nuclear staining as a mask, nuclear BRM mean signal intensity was quantified.
(§2) The data evidence the successful antibody targeting strategies disclosed herein.

BRM [2] = target: T1, BRM; experiment: Cell assay to determine DC50 and Dmax (nuclear BRM immunofluorescence), HCC515 cells; format: cell-based; conditions: 24 h drug treatment, nuclear BRM signal
Experimental: as §1, §2

T1 sequence (P51531 whole entry): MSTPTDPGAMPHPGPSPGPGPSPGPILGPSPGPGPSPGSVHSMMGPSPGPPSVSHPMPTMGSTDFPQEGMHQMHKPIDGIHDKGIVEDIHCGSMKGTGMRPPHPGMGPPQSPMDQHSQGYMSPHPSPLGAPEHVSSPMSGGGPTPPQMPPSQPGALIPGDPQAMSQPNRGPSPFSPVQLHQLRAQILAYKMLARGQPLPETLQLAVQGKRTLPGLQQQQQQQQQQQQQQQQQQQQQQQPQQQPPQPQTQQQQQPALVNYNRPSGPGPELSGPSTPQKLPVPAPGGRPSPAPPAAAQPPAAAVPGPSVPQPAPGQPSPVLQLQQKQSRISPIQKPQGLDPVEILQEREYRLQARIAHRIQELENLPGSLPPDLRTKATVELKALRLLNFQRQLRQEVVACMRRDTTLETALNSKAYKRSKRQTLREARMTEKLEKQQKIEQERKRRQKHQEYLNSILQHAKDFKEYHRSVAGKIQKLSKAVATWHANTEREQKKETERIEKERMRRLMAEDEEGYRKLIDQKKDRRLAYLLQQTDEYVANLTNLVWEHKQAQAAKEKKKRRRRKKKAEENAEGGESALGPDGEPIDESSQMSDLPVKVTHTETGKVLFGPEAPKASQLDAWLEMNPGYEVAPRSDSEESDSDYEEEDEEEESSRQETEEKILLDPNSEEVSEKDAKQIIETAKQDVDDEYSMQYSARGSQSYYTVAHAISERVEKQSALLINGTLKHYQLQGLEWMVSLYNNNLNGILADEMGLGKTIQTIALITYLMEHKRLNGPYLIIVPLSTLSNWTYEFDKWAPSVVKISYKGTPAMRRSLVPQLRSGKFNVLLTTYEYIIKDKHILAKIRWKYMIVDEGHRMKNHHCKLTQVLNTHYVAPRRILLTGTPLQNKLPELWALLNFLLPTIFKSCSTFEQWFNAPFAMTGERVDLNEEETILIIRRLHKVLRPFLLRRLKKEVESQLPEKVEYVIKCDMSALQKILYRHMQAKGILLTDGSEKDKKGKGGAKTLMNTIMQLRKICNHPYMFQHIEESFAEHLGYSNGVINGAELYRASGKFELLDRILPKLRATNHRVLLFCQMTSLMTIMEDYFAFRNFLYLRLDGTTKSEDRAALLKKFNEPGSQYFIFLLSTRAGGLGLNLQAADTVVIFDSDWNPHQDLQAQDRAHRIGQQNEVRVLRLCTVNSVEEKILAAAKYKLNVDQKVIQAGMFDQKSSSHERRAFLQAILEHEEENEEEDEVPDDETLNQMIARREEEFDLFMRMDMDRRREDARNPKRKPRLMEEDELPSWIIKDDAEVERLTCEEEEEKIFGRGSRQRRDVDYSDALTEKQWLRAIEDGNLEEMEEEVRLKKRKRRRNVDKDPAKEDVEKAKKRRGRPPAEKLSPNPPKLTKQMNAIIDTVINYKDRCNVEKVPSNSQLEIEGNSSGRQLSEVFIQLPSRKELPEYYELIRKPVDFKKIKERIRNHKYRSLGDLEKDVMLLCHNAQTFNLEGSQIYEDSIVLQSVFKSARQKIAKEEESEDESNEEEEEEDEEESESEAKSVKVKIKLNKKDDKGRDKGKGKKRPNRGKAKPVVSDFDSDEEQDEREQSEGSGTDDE

Molecule: Cc1ncsc1-c1ccc([C@H](C)NC(=O)[C@@H]2C[C@@H](OC(=O)OC(C)C(C)(C)SS(C)(=O)=O)CN2C(=O)[C@@H](c2cc(OCCN3CCN(CCOc4cc(N5C6CCC5CN(c5cc(-c7ccccc7OCOP(=O)(O)O)nnc5N)C6)ccn4)[C@H](C)C3)no2)C(C)C)cc1 (stereo partly shown) [L1-BRM1-9]
- Release in lysosomal extract (Lysosomal release assay): Yes (“Yes” indicates >50% free drug observed after 24 h incubation at 37 °C in lysosomal extract.)

Molecule: Cc1ncsc1-c1ccc([C@H](C)NC(=O)[C@@H]2C[C@@H](O)CN2C(=O)[C@@H](c2cc(OCCN3CCN(CCOc4cc(N5C6CCC5CN(c5cc(-c7ccccc7OCc7ccc(NC(=O)[C@H](CCCNC(N)=O)NC(=O)C8(C(=O)NCCCCCN9C(=O)C=CC9=O)CCC8)cc7)nnc5N)C6)ccn4)[C@H](C)C3)no2)C(C)C)cc1 [L1-BRM1-13]
- Release in lysosomal extract (Lysosomal release assay): Yes (“Yes” indicates >50% free drug observed after 24 h incubation at 37 °C in lysosomal extract.)

Molecule: Cc1ncsc1-c1ccc([C@H](C)NC(=O)[C@@H]2C[C@@H](O)CN2C(=O)[C@@H](c2cc(OCCN3CCN(CCOc4cc(N5C6CCC5CN(c5cc(-c7ccccc7O)nnc5NC(=O)OCc5ccc(NC(=O)[C@H](CCCNC(N)=O)NC(=O)C7(C(=O)NCCCCCN8C(=O)C=CC8=O)CCC7)cc5)C6)ccn4)[C@H](C)C3)no2)C(C)C)cc1 [L1-BRM1-20]
- Release in lysosomal extract (Lysosomal release assay): Yes (“Yes” indicates >50% free drug observed after 24 h incubation at 37 °C in lysosomal extract.)

Molecule: Cc1ncsc1-c1ccc([C@H](C)NC(=O)[C@@H]2C[C@@H](O)CN2C(=O)[C@@H](c2cc(OCCN3CCN(CCOc4cc(N5C6CCC5CN(c5cc(-c7ccccc7OS(=O)(=O)Oc7cc(C(=O)NCCOCCOCCOCCn8cc(COCCOCCOCCOCCNC(=O)CCN9C(=O)C=CC9=O)nn8)ccc7O[C@@H]7O[C@H](CO)[C@H](O)[C@H](O)[C@H]7O)nnc5N)C6)ccn4)[C@H](C)C3)no2)C(C)C)cc1 [L1-CIDE-BRM1-15]
- Release of the degrader in lysosomal extracts (Lysosomal release assay; human liver lysosomes): did not release the degrader

B1: Thio Hu Anti-TfR1.NG2LH.FcRn null high DAR [HC:L174C HC:Y373C LC:K149C] MC-sqCit BRM CIDE Ab-L1-CIDE-BRM1-13 (conjugate)
heavy: EVQLVQSGAEVKKPGASVKVSCKASGYTFTSYWMHWVRQAPGQRLEWIGEINPTNGRTNYIEKFKSRATLTVDKSASTAYMELSSLRSEDTAVYYCARGTRAYHYWGQGTMVTVSSASTKGPSVFPLAPSSKSTSGGTAALGCLVKDYFPEPVTVSWNSGALTSGVHTFPAVCQSSGLYSLSSVVTVPSSSLGTQTYICNVNHKPSNTKVDKKVEPKSCDKTHTCPPCPAPPVAGPSVFLFPPKPKDTLMISRTPEVTCVVVDVSHEDPEVKFNWYVDGVEVHNAKTKPREEQYGSTYRVVSVLTVLHQDWLNGKEYKCKVSNKALPAPIEKTISKAKGQPREPQVYTLPPSREEMTKNQVSLTCLVKGFCPSDIAVEWESNGQPENNYKTTPPVLDSDGSFFLYSKLTVDKSRWQQGNVFSCSVMHEALHNHYTQKSLSLSPGK
light: DIQMTQSPSSLSASVGDRVTITCRASDNLYSNLAWYQQKPGKSPKLLVYDATNLADGVPSRFSGSGSGTDYTLTISSLQPEDFATYYCQHFWGTPLTFGQGTKVEIKRTVAAPSVFIFPPSDEQLKSGTASVVCLLNNFYPREAKVQWCVDNALQSGNSQESVTEQDSKDSTYSLSSTLTLSKADYEKHKVYACEVTHQGLSSPVTKSFNRGEC
- NCI-HI944 DC50 (BRM [1]): 0.07 µg/mL
- NCI-HI944 Dmax (BRM [1]): 77

B2: Thio Hu Anti-TfR2.NG2LH high DAR [HC:L174C HC:Y373C LC:K149C] diMe Me disulfide BRM degrader phos Ab-L1-CIDE-BRM1-9 (conjugate)
heavy: B1 heavy
light: B1 light with W92A
- HCC515 DC50 (BRM [2]): 0.12 µg/mL
- HCC515 Dmax (BRM [2]): 96
- NCI-HI944 DC50 (BRM [1]): 0.74 µg/mL
- NCI-HI944 Dmax (BRM [1]): 94
